Measurements as given in the RNAGym collection of RNA variant scans (doi:10.7554/elife.80360).

B1: Hammerhead Ribozyme (parent)
chain: ACCGGAUGUGCUUUCCGGUCUGAUGAGUCCGUGAGGACGAAACAG

Variants of: B1
Assay: self-cleavage, relative activity (ratio to wild type); higher = more cleavage; co-transcriptional

Point of comparison: ACCGGAUGUGAUGUCCGGUCUGAUGAGUCCGUGAGGACGAAACAG, self-cleavage 0.853. Against it:
- ACCGGAUGUCCUUUCCGGUCCGAUGAGUCCGUGAGGACGAAACAG — lower, 0.673
- ACCGGAUGUGCUUUCCGGUCUGAUGAGUCCGUGAGUACGCAACAG — lower, 0.43
- ACCGGAUGUGCUUUCCGGUCUGAAGAGUCCGUGAGGACGAAACUG — lower, 0.712
- ACCGGAUGCGCUUUCCGGUCUGAUGAGUCCGUGAGGGCGAAACAG — higher, 1.61
- ACCGGAAGUGCUUUCCGGUCUGAUGAGUCCGUGAGGACGAAACUG — lower, 0.375
- ACCGGAUGUGCCUUCCGGUCUGAUGAGACCGUGAGGACGAAACAG — lower, 0.487
- ACCGGAUGUGCUUUCCGGUCUGAUGAGUCCGUGAGGACAAGACAG — lower, 0.383
- ACCGGAUGUGCUUUCCGGUCUGAUGAGUUCGUGAGGGCGAAACAG — lower, 0.751
- ACCGGAUGUGCUUCCCGGUCUGAUGAGUCCGUGAGGAGGAAACAG — lower, 0.489
- ACCGGAUGUGCUUUGCGGUCUGAUGAGUCCGUGAGUACGAAACAG — lower, 0.374
- ACCGCAUGUGCUUUCCGGUCUGAUGAGUCCAUGAGGACGAAACAG — higher, 0.855
- ACCGGAUGUGCUUUCCGGUCUGAUGAGACCGUAAGGACGAAACAG — lower, 0.829
- ACCGGAUGGGCUUUCCGGUCAGAUGAGUCCGUGAGGACGAAACAG — lower, 0.405
- ACCGGAUGUGCUUUCCGGUAUGAUGAGUCCGUGAGGACGAAUCAG — lower, 0.386
- ACCGGCUGUGCUUUCCGGUCUGAUGAGUCCGUGAGGACGAAACAA — lower, 0.384
- ACCGGAUGUGGUUUCCGGUCUGAUGAGUCCGUGAAGACGAAACAG — higher, 1.02
- ACCGAAUGUGCUUUCCGGUCUGAUGGGUCCGUGAGGACGAAACAG — lower, 0.398
- ACCGGAUGUGCUUUCCGUUCUGAUGAGUCCGUGAGGCCGAAACAG — lower, 0.567
- ACCGGGUGUGCUUUCCGGUGUGAUGAGUCCGUGAGGACGAAACAG — lower, 0.236
- ACCGGAUGUACUUUCCGGUCUGAUGAGUCCGCGAGGACGAAACAG — higher, 1.52
- ACCGGAUGUGCUUUCCGGUCUGAUGAGUCCGGGAGGACGAAAGAG — lower, 0.303
- ACCGGCAGUGCUUUCCGGUCUGAUGAGUCCGUGAGGACGAAACAG — lower, 0.311
- AACGGAUGUGCUUUCCGGUCUGAUGAGUCCGUGAGGACGAUACAG — lower, 0.346
- AACGGAUGUGCUUUACGGUCUGAUGAGUCCGUGAGGACGAAACAG — lower, 0.378
- GCCGGAUGUGCUUUCCGGUCUGAUGAGUUCGUGAGGACGAAACAG — higher, 1.52
- ACCGGAUGUGCGUUCCGGUCUGAUGAGACCGUGAGGACGAAACAG — lower, 0.666
- ACCGGAUGUGCUUUCCGGUCCGAUGAGUCCGUGAAGACGAAACAG — lower, 0.741
- ACCGGAUGUGCUUUCCGGUCUGUUGUGUCCGUGAGGACGAAACAG — lower, 0.374
- ACCGGAUGUGCUUUCCGGAGUGAUGAGUCCGUGAGGACGAAACAG — lower, 0.31
- ACCGGAUGUGCUUUCCGGACUGAUGAGUCCGAGAGGACGAAACAG — lower, 0.321
- ACCGGAUUUGCUUUCCGGUCUGAUGAGUCCGUGAGGACAAAACAG — lower, 0.395
- ACCGGAUGUGCUUUCCGGUCUGAUGAGGCCGUGAGGACGAUACAG — lower, 0.338
- ACUGGAUGUGCUUUCCGGUCUGAUGGGUCCGUGAGGACGAAACAG — lower, 0.366
- ACCGGAUAUGCUUUCCAGUCUGAUGAGUCCGUGAGGACGAAACAG — lower, 0.539
- ACCGGAUGUGCUCUCCGGUCUGAUGAGUCCGUGACGACGAAACAG — lower, 0.774
- AACGGAUGUGCUUUCCGGUCUGAUGAGUCCGUGAGGACGGAACAG — lower, 0.324
- ACCGGAUGUGCUUUCCGGUCUGAAGAGUCCGUGAGGAGGAAACAG — lower, 0.645
- ACCGGAUGUGCUUUCCGGCCUGAUGAGUCCGUGAGGACGAAACCG — lower, 0.325
- ACCGGAUGUGCUUUCCGGUAUCAUGAGUCCGUGAGGACGAAACAG — lower, 0.349
- ACAGGAUGUGCUUUCCGGUCUGAUGAGUCCGUGAGCACGAAACAG — lower, 0.338
- ACAGGAUGUGCUUUCCGGUCUAAUGAGUCCGUGAGGACGAAACAG — lower, 0.308
- ACCGGAUGUGGUUUCCGGUCUGAUGAGUCCGUGAGGACGACACAG — lower, 0.366
- ACCGGACUUGCUUUCCGGUCUGAUGAGUCCGUGAGGACGAAACAG — higher, 1.38
- ACCGGAUGUGCUUUCCGGUCUGAUAAGUCUGUGAGGACGAAACAG — lower, 0.331
- ACCGGAUGUGCUUUCCGAUCUGAGGAGUCCGUGAGGACGAAACAG — lower, 0.678
- ACCGGAUGUGCUUUCCGGUCUGAUUAGUCCGUGAGGACGAAACCG — lower, 0.42
- ACCGGAUGUGCUUUCCGGUCUUAUGAGUCCGUAAGGACGAAACAG — lower, 0.307
- ACCGGAUGUGCUUUCCCGACUGAUGAGUCCGUGAGGACGAAACAG — lower, 0.335
- ACCGGAUGUGCUUUCCGGUCUGAUGAGUCCGUGAGGACGGAACGG — lower, 0.571
- UCCGUAUGUGCUUUCCGGUCUGAUGAGUCCGUGAGGACGAAACAG — lower, 0.354
- ACCGGAUGUGUUUUCCGGUCUGAUGAGUCCGUGAGGACGCAACAG — lower, 0.438
- ACCGGAUGUGCUCUCCGGUCCGAUGAGUCCGUGAGGACGAAACAG — higher, 1.23
- ACCGGAUGUGCUUUCCGGUCUGACGAGUCCGUGAGGACGAAGCAG — lower, 0.228
- ACCGGAUGUGCUUUCCGGUCUGAUGAGUCCGUUAGGACAAAACAG — lower, 0.341
- ACCGGAUGUGCUUUCCGGUCUGAUCAGUACGUGAGGACGAAACAG — lower, 0.243
- GCCGUAUGUGCUUUCCGGUCUGAUGAGUCCGUGAGGACGAAACAG — lower, 0.805
- CCCGGAUGUGCUUUCCGGUCUGAUGAGUCCGUGAGGACGAAAAAG — lower, 0.295
- ACCGGAUGUGCUUUGCGGUCUGAUGAGUCCAUGAGGACGAAACAG — higher, 1.01
- ACCGGAUGUGCUUUCCGGUCUGAUUAGUCCGUGAGGACGAAAUAG — lower, 0.36
- ACCGGAUGGGCGUUCCGGUCUGAUGAGUCCGUGAGGACGAAACAG — lower, 0.784
- ACCGGAUGUGCUUUCUGGUCUGAUGAGUCCCUGAGGACGAAACAG — lower, 0.844
- ACCGGAUGUGCUUUCCGGUAUGAUGAGUCCGUGAGGACGAAACCG — lower, 0.366
- ACCAGAUGUGCUUUCCGGUCUGAUCAGUCCGUGAGGACGAAACAG — lower, 0.32
- ACCGGAUGUGCUUUCCGGUCUAAUGAGUCCGUGAGGACGAAAGAG — lower, 0.288
- AUCGGAUGUGCUUUCCGGUCUGCUGAGUCCGUGAGGACGAAACAG — lower, 0.558
- ACCGGAUGCCCUUUCCGGUCUGAUGAGUCCGUGAGGACGAAACAG — higher, 1.07
- ACCGGAUGUGCUUUCCGGUCUGUUGAGUCCGUGAGGACGAAAUAG — lower, 0.433
- AGCGGCUGUGCUUUCCGGUCUGAUGAGUCCGUGAGGACGAAACAG — lower, 0.196
- ACCGGAUAUGCUUUCAGGUCUGAUGAGUCCGUGAGGACGAAACAG — higher, 1.2
- ACCGGAUGUGCUUUCCGGCCUGUUGAGUCCGUGAGGACGAAACAG — lower, 0.372
- ACCGGAUGUGAUUUCCGGUCUGAUGAGACCGUGAGGACGAAACAG — higher, 1.04
- ACCGGAUGUGCUUUCCGGUCUGAUGAUUCCGUGAGUACGAAACAG — lower, 0.328
- ACCGGAUGUGCUUUCCGGUCUGAUGAGUCCGUGAGGCCGAGACAG — lower, 0.404
- ACCGGAUGUGCUUUAAGGUCUGAUGAGUCCGUGAGGACGAAACAG — higher, 0.869
- ACCGGAUGUACUUUCCGGUCUGAUGAGUCCGUGAGGACGAAACUG — lower, 0.741
- ACCGGAUGUGCUUUCCGGUCUGAUGAGUGCAUGAGGACGAAACAG — higher, 1.01
- ACCGGAUGUGCCUUCCGGUCUGAUGAGUCCGUGAGGACGAAACAC — lower, 0.73
- ACCCGAUGUGCUUUCCGGCCUGAUGAGUCCGUGAGGACGAAACAG — lower, 0.297
- ACCGGAUGUGCUUUCCGGUCUGAUGAGUCCGUAAGGACUAAACAG — lower, 0.344
- ACCGGAUGUUGUUUCCGGUCUGAUGAGUCCGUGAGGACGAAACAG — higher, 1.2
- ACCAGAUGUGCUUUCCGGUCUGAUGAGUCCGUGAGUACGAAACAG — lower, 0.37
- ACCGGAUGUGCUUUCCGGUCUGAUGAGUCCGUGAGGACUAAACGG — lower, 0.676
- ACCGGAUGUGCUUUCCGGUCUGAUGAGCCAGUGAGGACGAAACAG — lower, 0.826
- ACAGGAUGUGCUUUCCGGUCUGAUGAGUCCGUGAGGACCAAACAG — lower, 0.282
- ACCGGAUGUGCUUUCCGGUCUGAUGAGUCCAUGAGGACGAAAUAG — lower, 0.499
- GCCGGAGGUGCUUUCCGGUCUGAUGAGUCCGUGAGGACGAAACAG — higher, 1.4
- ACCGGAUGUGCUUUCCGGUCUGAUGAGUCCGUGAGGAUAAAACAG — lower, 0.363
- ACCGGAUGUGCUUUCCGGUCUUAUGAGUUCGUGAGGACGAAACAG — lower, 0.251
- AUCGGAUGUGUUUUCCGGUCUGAUGAGUCCGUGAGGACGAAACAG — lower, 0.739
- UCCGGAUGUGCUUUCCGGUCUGAUGAGUCCGUGAGGACGAUACAG — lower, 0.377
- ACCGGAUGUGCUUUCCGGUCUGAUGGGUCCGUGGGGACGAAACAG — lower, 0.305
- ACCGGAUGUGCUUUCCGGUCUGAUGAGUCCGUGACGACAAAACAG — lower, 0.31
- ACCGGAUGUGCUUUACGGUCUGAUGAGUCCGGGAGGACGAAACAG — lower, 0.769
- ACCGGAUGUGCUUUCCGGUCAGAUGAGUCCGUGAGGAGGAAACAG — lower, 0.378
- ACCGGAUGUGCUUUCCGGUCAGAUGAGUCCGUGAGGACGAAAUAG — lower, 0.398
- ACCGGAUGUGCUUUCCGGUCUGAUGAGUCCGUGAGGACGAACUAG — lower, 0.38
- ACCGGAUGUGCUUUCCGUUCUGAUGAGUCUGUGAGGACGAAACAG — lower, 0.849
- ACCGGAUGUGUUUUCCGGUCUGAUGAGUCCGUGAGGACAAAACAG — lower, 0.383
- ACCGGAUGUGCUUUCCGGUCUGAUGAGUCCGUUAGGACGAAUCAG — lower, 0.371
- ACUGGAUGUGCUUUCCGGUCUGAUGAUUCCGUGAGGACGAAACAG — lower, 0.554
- ACCGGAUGUGCUUUCCGGUCUGAUGAGGCCGUGAGGACGAAACCG — lower, 0.371
- ACCGGAUAUGCUAUCCGGUCUGAUGAGUCCGUGAGGACGAAACAG — higher, 1.04
- ACCGGAUGUGCUUUCCGGGCUUAUGAGUCCGUGAGGACGAAACAG — lower, 0.304
- ACUGGAUGUGCUUUCCGGUCUGAUGAGUCGGUGAGGACGAAACAG — lower, 0.727
- ACCGGAUGCGCUUUCCGGUCUGAUGCGUCCGUGAGGACGAAACAG — lower, 0.554
- ACGGGAUGUGCUUUCCGGUCUGAUGAGUCCGUGCGGACGAAACAG — lower, 0.422
- ACCGGAUGUUCUUUCCGGUCUGAUGAGUCCAUGAGGACGAAACAG — higher, 0.989
- ACCGGAGGUGCUUUCCGGCCUGAUGAGUCCGUGAGGACGAAACAG — lower, 0.512
- ACAGGACGUGCUUUCCGGUCUGAUGAGUCCGUGAGGACGAAACAG — lower, 0.386
- ACCGGAUGUGCUUUCCGUUCCGAUGAGUCCGUGAGGACGAAACAG — lower, 0.544
- ACCGGAUGUGUUUUCCGGUCUGAUGAGUCCGCGAGGACGAAACAG — higher, 0.964
- CCCGGAUGUGCUUUCCGGCCUGAUGAGUCCGUGAGGACGAAACAG — lower, 0.365
- ACCGGAUGUGCUUGCCGGUCUGAAGAGUCCGUGAGGACGAAACAG — higher, 1.03
